Laboratory results: patent publication US20120135923A1, “Use of Melanocortins to Treat Dyslipidemia” (IPSEN PHARMA, S.A.S., priority 2009, published 2012)
Bridge positions count the residues as written; N and C are the ends. Square brackets hold non-standard residues; d marks the D form.

How the values were obtained:
hMC1-R (human) [1] = target: hMC1-R (human) (UniProt Q01726); test: cell-based or functional assay
hMC3-R (human) [2] = target: hMC3-R (human) (UniProt P41968); test: cell-based or functional assay
hMC3-R (human), sequence (P41968 whole entry): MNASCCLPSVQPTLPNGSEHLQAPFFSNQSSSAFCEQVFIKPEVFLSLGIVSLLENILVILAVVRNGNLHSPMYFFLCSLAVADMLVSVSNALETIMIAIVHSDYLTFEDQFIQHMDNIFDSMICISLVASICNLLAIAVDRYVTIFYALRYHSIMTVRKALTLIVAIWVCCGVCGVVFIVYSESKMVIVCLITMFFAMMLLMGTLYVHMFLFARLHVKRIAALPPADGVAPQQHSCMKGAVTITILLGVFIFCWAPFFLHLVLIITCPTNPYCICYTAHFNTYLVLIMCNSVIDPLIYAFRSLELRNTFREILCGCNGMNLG

hMC4-R (human) [3] = target: hMC4-R (human) (UniProt P32245); test: cell-based or functional assay
hMC4-R (human), sequence (P32245 whole entry): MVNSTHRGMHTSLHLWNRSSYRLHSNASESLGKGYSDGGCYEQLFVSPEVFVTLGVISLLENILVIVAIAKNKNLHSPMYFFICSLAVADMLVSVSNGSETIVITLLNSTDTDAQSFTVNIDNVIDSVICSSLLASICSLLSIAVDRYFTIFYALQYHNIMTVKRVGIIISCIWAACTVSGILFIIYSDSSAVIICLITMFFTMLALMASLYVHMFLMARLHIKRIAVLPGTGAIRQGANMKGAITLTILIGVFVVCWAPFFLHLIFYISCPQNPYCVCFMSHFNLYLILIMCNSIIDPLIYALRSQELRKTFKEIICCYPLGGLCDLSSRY

hMC5-R (human) [4] = target: hMC5-R (human) (UniProt P33032); test: cell-based or functional assay
hMC5-R (human), sequence (P33032 whole entry): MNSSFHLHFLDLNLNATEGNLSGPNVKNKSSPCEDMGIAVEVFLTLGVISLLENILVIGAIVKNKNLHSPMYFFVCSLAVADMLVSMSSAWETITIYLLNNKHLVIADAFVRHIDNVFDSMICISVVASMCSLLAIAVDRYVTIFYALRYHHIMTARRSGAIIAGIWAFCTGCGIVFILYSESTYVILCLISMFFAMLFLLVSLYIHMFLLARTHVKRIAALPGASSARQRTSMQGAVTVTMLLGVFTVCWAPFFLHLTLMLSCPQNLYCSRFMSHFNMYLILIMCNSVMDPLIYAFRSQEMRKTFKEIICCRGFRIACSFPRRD

hMC1-R (human) [5] = target: hMC1-R (human) (UniProt Q01726); test: ratio Ki hMC1-R / Ki hMC4-R, same assay
hMC1-R (human) [6] = target: hMC1-R (human) (UniProt Q01726); test: competition with [125I]-NDP-α-MSH, CHO-K1 membranes
hMC3-R (human) [7] = target: hMC3-R (human) (UniProt P41968); test: as above
hMC4-R (human) [8] = target: hMC4-R (human) (UniProt P32245); test: as above
hMC5-R (human) [9] = target: hMC5-R (human) (UniProt P33032); test: as above
[10] = target: human melanocortin receptor subtype 1 (hMC1-R) (human) (UniProt Q01726); test: [125I]-NDP-α-MSH competition, membranes
human melanocortin receptor subtype 1 (hMC1-R) (human), sequence (Q01726 whole entry): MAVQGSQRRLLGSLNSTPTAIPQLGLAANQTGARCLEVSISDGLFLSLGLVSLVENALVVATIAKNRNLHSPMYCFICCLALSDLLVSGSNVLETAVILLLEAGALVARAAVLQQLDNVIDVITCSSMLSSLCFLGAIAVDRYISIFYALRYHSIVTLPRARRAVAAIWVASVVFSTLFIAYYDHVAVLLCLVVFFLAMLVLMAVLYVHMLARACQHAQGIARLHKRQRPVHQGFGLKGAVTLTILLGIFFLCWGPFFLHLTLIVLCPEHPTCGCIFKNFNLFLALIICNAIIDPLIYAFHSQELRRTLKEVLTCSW

[11] = target: human melanocortin receptor subtype 4 (hMC4-R) (human) (UniProt P32245); test: [125I]-NDP-α-MSH competition, membranes
human melanocortin receptor subtype 4 (hMC4-R) (human), sequence (P32245 whole entry): as the sequence (P32245 whole entry) above

[12] = target: human melanocortin receptor subtype 5 (hMC5-R) (human) (UniProt P33032); test: [125I]-NDP-α-MSH competition, membranes
human melanocortin receptor subtype 5 (hMC5-R) (human), sequence (P33032 whole entry): as the sequence (P33032 whole entry) above

[13] = target: human melanocortin receptor subtype 3 (hMC3-R) (human) (UniProt P41968); test: [125I]-NDP-α-MSH competition, membranes
human melanocortin receptor subtype 3 (hMC3-R) (human), sequence (P41968 whole entry): as the sequence (P41968 whole entry) above

hMC1-R (human), sequence (Q01726 whole entry): as the sequence (Q01726 whole entry) above

Row | Substance | cAMP EC50 (hMC1-R (human) [1]) | cAMP EC50 (hMC3-R (human) [2]) | cAMP EC50 (hMC4-R (human) [3]) | cAMP EC50 (hMC5-R (human) [4]) | further results
1 | Ac-1-Nal-Arg-c(Cys-D-Ala-His-D-Phe-Arg-Trp-Cys)-NH2 (peptide; unit assumed) | 8.67 nM | 4.21 nM | 0.363 nM | 1320 nM | 
2 | Ac-2-Nal-Arg-c(Cys-D-Ala-His-D-Phe-Arg-Trp-Cys)-NH2 (peptide; unit assumed) | 9.66 nM | 6.11 nM | 0.275 nM | 1730 nM | 
3 | Ac-Arg-c(Cys-D-Ala-His-D-2-Nal-Arg-Trp-Cys)-NH2 (peptide; unit assumed) | 193 nM |  |  | 1110 nM | cAMP Kb (hMC3-R (human) [2]): 5.72 nM; cAMP Kb (hMC4-R (human) [3]): 1.58 nM
4 | Ac-Cha-c(Asp-His-D-2-Nal-Arg-Trp-Gaba-Lys)-NH2 (peptide) |  |  |  |  | Ki hMC1-R/MC4-R (hMC1-R (human) [5]): 0.2; Ki (hMC1-R (human) [6]): 0.576 nM; Ki (hMC3-R (human) [7]): 3.98 nM; Ki (hMC4-R (human) [8]): 2.82 nM; Ki (hMC5-R (human) [9]): 3.91 nM
5 | Ac-D-Arg-c(Cys-D-Ala-His-D-Phe-Arg-Trp-Cys)-NH2 (peptide) |  |  |  |  | Ki (hMC5-R (human) [9]): 352 nM
6 | Ac-D-Arg-c(Cys-D-Ala-His-D-Phe-Arg-Trp-Pen)-NH2 (peptide) |  |  |  |  | Ki (hMC1-R (human) [6]): 8.29 nM; Ki (hMC3-R (human) [7]): 13.3 nM; Ki (hMC5-R (human) [9]): 816 nM
7 | Ac-D-Arg-c(Cys-D-Ala-His-D-Phe-Arg-Trp-Pen)-NH2 (peptide; unit assumed) | 26.5 nM | 10.5 nM |  | 2440 nM | 
8 | Ac-Nle-c(Asp-His-D-2-Nal-Arg-Trp-β-Ala-Lys)-NH2 (peptide) |  |  |  |  | Ki (hMC1-R (human) [6]): 0.648 nM
9 | Ac-Nle-c(Cys-3-Pal-D-Phe-Arg-Trp-Gaba-Cys)-NH2 (peptide) |  |  |  |  | Ki (hMC1-R (human) [6]): 21.1 nM; Ki (hMC3-R (human) [7]): 151 nM; Ki (hMC5-R (human) [9]): 92.6 nM
10 | Ac-Nle-c(Cys-D-Ala-His-D-2-Nal-Arg-Bal-Cys)-NH2 (peptide) |  |  |  |  | Ki hMC1-R/MC4-R (hMC1-R (human) [5]): 1.34; Ki (hMC1-R (human) [6]): 22.2 nM; Ki (hMC3-R (human) [7]): 12.7 nM; Ki (hMC4-R (human) [8]): 16.6 nM; Ki (hMC5-R (human) [9]): 125 nM
11 | Ac-Nle-c(Cys-D-Ala-His-D-Phe-Arg-Trp-Cys)-NH2 (peptide; unit assumed) | 2.4 nM | 0.33 nM | 0.078 nM | 420 nM | 
12 | Ac-Nle-c(Cys-D-Ala-His-D-Phe-Arg-Trp-Pen)-NH2 (peptide; unit assumed) | 14.3 nM | 2.03 nM | 0.183 nM | 2240 nM | 
13 | Ac-Nle-c(Cys-D-Cha-His-D-Phe-Arg-Trp-Cys)-NH2 (peptide; unit assumed) | 0.819 nM | 0.541 nM | 0.453 nM | 45.3 nM | 
14 | Ac-hCha-c(Asp-His-D-Phe-Arg-Trp-Gaba-Lys)-NH2 (peptide; unit assumed) | 2.27 nM | 3.32 nM | 7.24 nM | 415 nM | 
15 | Ac-hPhe-c(Asp-His-D-2-Nal-Arg-Trp-Gaba-Lys)-NH2 (peptide) |  |  |  |  | Ki (hMC1-R (human) [6]): 0.461 nM; Ki (hMC3-R (human) [7]): 2.45 nM; Ki (hMC4-R (human) [8]): 0.931 nM
16 | D-Phe-c(Cys-His-D-(Et)Tyr-hArg-Trp-β-Ala-D-Cys)-Thr-NH2 (peptide) |  |  |  |  | Ki hMC1-R/MC4-R (hMC1-R (human) [5]): 0; Ki (hMC1-R (human) [6]): 0.0567 nM; Ki (hMC3-R (human) [7]): 31.4 nM; Ki (hMC4-R (human) [8]): 14.7 nM; Ki (hMC5-R (human) [9]): 9.27 nM
17 | Hydantoin(C(O)-(D-Ala-Gly))-c(Cys-D-Ala-His-D-Phe-Arg-Trp-Cys)-NH2 (peptide) |  |  |  | 355 nM | Ki [10]: 11.7 nM; Ki [11]: 4.28 nM; Ki [12]: 34.7 nM
18 | Hydantoin(C(O)-(D-Ala-Nle))-c(Cys-D-Ala-His-D-Phe-Arg-Trp-Cys)-NH2 (peptide) |  |  |  |  | Ki [10]: 16 nM; Ki [13]: 63.9 nM; Ki [12]: 1820 nM
19 | Hydantoin(C(O)-(D-Arg-Gly))-c(Cys-D-Ala-His-D-Phe-Arg-Trp-Cys)-NH2 (peptide) |  |  |  | 3950 nM | Ki [10]: 3.52 nM; Ki [13]: 48.7 nM; Ki [11]: 5.78 nM; Ki [12]: 872 nM
20 | Hydantoin(C(O)-(D-Arg-Gly))-c(Cys-Glu-His-D-Phe-Arg-Trp-Cys)-NH2 (peptide) |  |  |  | 2710 nM | Ki [10]: 9.49 nM; Ki [13]: 124 nM; Ki [11]: 2.95 nM; Ki [12]: 2260 nM
21 | Hydantoin(C(O)-(Gly-D-Arg))-c(Cys-D-Ala-His-D-Phe-Arg-Trp-Cys)-NH2 (peptide; unit assumed) | 7.53 nM | 11.6 nM | 0.435 nM |  | 
22 | Hydantoin(C(O)-(Gly-D-Arg))-c(Cys-Glu-His-D-Phe-Arg-Trp-Cys)-NH2 (peptide) |  |  |  | 7440 nM | Ki [10]: 4.3 nM; Ki [13]: 78 nM; Ki [11]: 1.77 nM; Ki [12]: 4540 nM
23 | Hydantoin(C(O)-(Gly-D-Arg))-c(Cys-Glu-His-D-Phe-Arg-Trp-Cys)-NH2 (peptide; unit assumed) | 12.9 nM | 10.3 nM | 0.125 nM |  | 
24 | Hydantoin(C(O)-(Nle-Gly))-c(Cys-D-Ala-His-D-Phe-Arg-Trp-Pen)-NH2 (peptide; unit assumed) | 17 nM | 21.5 nM | 0.584 nM |  | 

Second part, led by results:

Row | cAMP EC50 (hMC1-R (human) [1]) | cAMP EC50 (hMC3-R (human) [2]) | cAMP EC50 (hMC4-R (human) [3]) | cAMP EC50 (hMC5-R (human) [4]) | Substance | further results
25 | 1.39 nM | 2.89 nM | 0.055 nM | 467 nM | Ac-Arg-c(Asp-His-D-Phe-Arg-Trp-Ala-Lys)-NH2 (peptide; unit assumed) | 
26 | 48.3 nM | 13.3 nM |  | 10000 nM | Ac-Arg-c(Cys-D-Ala-His-D-Phe-Arg-Trp-Pen)-NH2 (peptide; unit assumed) | 
27 | 1.27 nM |  |  | 0.736 nM | Ac-Cha-c(Asp-His-D-2-Nal-Arg-Trp-Gaba-Lys)-NH2 (peptide; unit assumed) | cAMP Kb (hMC3-R (human) [2]): 3.02 nM; cAMP Kb (hMC4-R (human) [3]): 0.442 nM
28 | 3.26 nM | 0.189 nM | 0.0949 nM | 30.2 nM | Ac-Cha-c(Asp-His-D-Phe-Arg-Trp-Gaba-Lys)-NH2 (peptide; unit assumed) | 
29 | 1.48 nM | 5.76 nM | 0.078 nM | 297 nM | Ac-D-Arg-c(Asp-His-D-Phe-Arg-Trp-Ala-Lys)-NH2 (peptide; unit assumed) | 
30 | 1.37 nM | 0.628 nM | 0.131 nM | 3.48 nM | Ac-Nle-c(Asp-His-D-Phe-Arg-Trp-Gaba-Lys)-NH2 (peptide; unit assumed) | 
31 | 0.834 nM | 0.145 nM | 0.128 nM | 2.79 nM | Ac-Nle-c(Asp-His-D-Phe-Arg-Trp-β-Ala-Lys)-NH2 (peptide; unit assumed) | 
32 | 17.6 nM |  |  | 11.8 nM | Ac-Nle-c(Cys-D-Ala-His-D-2-Nal-Arg-Trp-Cys)-NH2 (peptide; unit assumed) | cAMP Kb (hMC3-R (human) [2]): 12.4 nM; cAMP Kb (hMC4-R (human) [3]): 38.8 nM
33 | 5.78 nM | 3.95 nM | 0.219 nM | 2580 nM | Ac-WRC[dA]H[dF]RWC-NH2 (disulfide 3-9) | 
34 | 0.413 nM |  |  | 0.307 nM | Ac-hPhe-c(Asp-His-D-2-Nal-Arg-Trp-Gaba-Lys)-NH2 (peptide; unit assumed) | cAMP Kb (hMC3-R (human) [2]): 9.32 nM; cAMP Kb (hMC4-R (human) [3]): 0.824 nM
35 | 14.2 nM | 2.46 nM | 0.336 nM |  | Hydantoin(C(O)-(Gly-Gly))-c(Cys-D-Ala-His-D-Phe-Arg-Trp-Cys)-NH2 (peptide; unit assumed) | 
36 | 124 nM | 8.05 nM | 0.214 nM |  | Hydantoin(C(O)-(Gly-Gly))-c(Cys-Glu-His-D-Phe-Arg-Trp-Cys)-NH2 (peptide; unit assumed) | 
37 | 54.3 nM | 12.2 nM | 0.177 nM |  | Hydantoin(C(O)-(Nle-Gly))-c(Cys-Glu-His-D-Phe-Arg-Trp-Cys)-NH2 (peptide; unit assumed) | 
